Here are results for 94 variants from the supplement of paper PMC10567573.

To fix the notation:
B1: HSP90AB1 (parent)
chain: QVANSAFVERVRKRGFEVVYMTEP
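Further: lentivirally expressed fusions sorted by FACS into six bins by GFP to DsRed ratio, PSI derived from sequencing read proportions per bin multiplied by bin number.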

Variants of B1 are the subject of the series. The experiment in a line: protein stability index of a GFP-peptide fusion (GPS, HEK-293T) (PSI 1-6); higher = more stable. The note with it: c terminus: a fixed tail appended.
In the case of QVANSAFVERVRKRGFTVVYMTEP, the protein stability index stood at 1.87.

With QVANSAFVERVRKRGFIVVYMTEP, the protein stability index is 2.75.

With QVANSAFVERVRKRGFRVVYMTEP, the protein stability index turned out to be 2.19.

Take QVANSAFVERVRKRGFQVVYMTEP: the protein stability index is 1.51.

Turning to QVANSAFVERVRKRGFDVVYMTEP, the protein stability index was 2.

Regarding QVANSAFVERVRKRGFFVVYMTEP, the protein stability index was 4.31.

For QVANSAFVERVRKRGFHVVYMTEP, the protein stability index was 1.76.

For QVANSAFVERVRKRGFYVVYMTEP, the protein stability index came out at 2.6.

As for QVANSAFVERVRKRGFPVVYMTEP, the protein stability index stood at 2.02.

With QVANSAFVERVRKRGFAVVYMTEP, the protein stability index stood at 1.26.

For QVANSAFVERVRKRGFNVVYMTEP, the protein stability index amounted to 2.32.

For the variant QVANSAFVERVRKRGFVVVYMTEP, the protein stability index is 1.89.

For QVANSAFVERVRKRGFCVVYMTEP, the protein stability index was found to be 2.44.

On to QVANSAFVERVRKRGFGVVYMTEP, for which the protein stability index was 2.88.

As to QVANSAFVERVRKRGFMVVYMTEP, the protein stability index worked out at 2.15.

Regarding QVANSAFVERVRKRGFSVVYMTEP, the protein stability index is 2.49.

QVANSAFVERVRKRGFKVVYMTEP: the protein stability index is 2.02.

For QVANSAFVERVRKRLFEVVYMTEP, the protein stability index turned out to be 1.83.

As for QVANSAFVERVRKRTFEVVYMTEP, the protein stability index worked out at 2.72.

As for QVANSAFVERVRKRDFEVVYMTEP, the protein stability index amounted to 3.3.

As to QVANSAFVERVRKRNFEVVYMTEP, the protein stability index was 2.61.

QVANSAFVERVRKRCFEVVYMTEP: the protein stability index worked out at 1.79.

With QVANSAFVERVRKRRFEVVYMTEP, the protein stability index came to 1.98.

In the case of QVANSAFVERVRKRSFEVVYMTEP, the protein stability index came to 2.38.

Take QVANSAFVERVRKRWFEVVYMTEP: the protein stability index amounted to 1.91.

Regarding QVANSAFVERVRKRHFEVVYMTEP, the protein stability index worked out at 1.66.

With QVANSAFVERVRKRKFEVVYMTEP, the protein stability index is 2.12.

With QVANSAFVERVRKRAFEVVYMTEP, the protein stability index came out at 2.01.

With QVANSAFVERVRKRFFEVVYMTEP, the protein stability index is 2.21.

Turning to QVANSAFVERVRKRVFEVVYMTEP, the protein stability index was found to be 2.19.

Turning to QVANSAFVERVRKREFEVVYMTEP, the protein stability index was 2.56.

In the case of QVANSAFVERVRKRPFEVVYMTEP, the protein stability index came out at 2.75.

Turning to QVANSAFVERVRKRIFEVVYMTEP, the protein stability index was determined as 1.81.

Consider QVANSAFVERVRKRMFEVVYMTEP, for which the protein stability index stood at 2.07.

Take QVANSAFVERVRKRYFEVVYMTEP: the protein stability index turned out to be 1.61.

Turning to QVANSAFVERVRKRGNEVVYMTEP, the protein stability index was 3.3.

With QVANSAFVERVRKRGYEVVYMTEP, the protein stability index stood at 2.11.

With QVANSAFVERVRKRGKEVVYMTEP, the protein stability index was 3.2.

For QVANSAFVERVRKRGREVVYMTEP, the protein stability index was 2.98.

In the case of QVANSAFVERVRKRGGEVVYMTEP, the protein stability index came to 3.28.

As for QVANSAFVERVRKRGEEVVYMTEP, the protein stability index turned out to be 4.47.

Take QVANSAFVERVRKRGWEVVYMTEP: the protein stability index was determined as 2.04.

Turning to QVANSAFVERVRKRGMEVVYMTEP, the protein stability index stood at 2.73.

Regarding QVANSAFVERVRKRGVEVVYMTEP, the protein stability index came out at 2.64.

Turning to QVANSAFVERVRKRGAEVVYMTEP, the protein stability index stood at 3.87.

For QVANSAFVERVRKRGPEVVYMTEP, the protein stability index was 3.05.

On to QVANSAFVERVRKRGLEVVYMTEP, for which the protein stability index is 2.52.

On to QVANSAFVERVRKRGQEVVYMTEP, for which the protein stability index came out at 4.2.

Turning to QVANSAFVERVRKRGIEVVYMTEP, the protein stability index came out at 2.61.

Take QVANSAFVERVRKRGCEVVYMTEP: the protein stability index is 2.71.

As to QVANSAFVERVRKRGSEVVYMTEP, the protein stability index came out at 3.64.

Regarding QVANSAFVERVRKRGTEVVYMTEP, the protein stability index is 3.1.

For QVANSAFVERVRKRGHEVVYMTEP, the protein stability index worked out at 3.05.

Consider QVANSAFVERVRKRGDEVVYMTEP, for which the protein stability index came to 4.16.

For the variant QVANSAFVERVRKVGFEVVYMTEP, the protein stability index is 1.65.

Consider QVANSAFVERVRKWGFEVVYMTEP, for which the protein stability index was 2.16.

Regarding QVANSAFVERVRKYGFEVVYMTEP, the protein stability index is 2.21.

With QVANSAFVERVRKRGFEVVCMTEP, the protein stability index is 2.99.

On to QVANSAFVERVRKRGFEVVGMTEP, for which the protein stability index turned out to be 3.52.

Turning to QVANSAFVERVRKRGFEVVEMTEP, the protein stability index is 3.37.

Take QVANSAFVERVRKRGFEVVAMTEP: the protein stability index amounted to 2.62.

Turning to QVANSAFVERVRKRGFEVVHMTEP, the protein stability index worked out at 3.07.

In the case of QVANSAFVERVRKRGFEVVDMTEP, the protein stability index is 3.06.

With QVANSAFVERVRKRGFEWVYMTEP, the protein stability index is 2.05.

For the variant QVANSAFVERVRKRGFETVYMTEP, the protein stability index was found to be 2.67.

As for QVANSAFVERVRKRGFEHVYMTEP, the protein stability index amounted to 2.83.

QVANSAFVERVRKRGFESVYMTEP: the protein stability index is 2.57.

Consider QVANSAFVERVRKRGFENVYMTEP, for which the protein stability index turned out to be 3.1.

For the variant QVANSAFVERVRKRGFEKVYMTEP, the protein stability index is 2.12.

For QVANSAFVERVRKRGFELVYMTEP, the protein stability index is 2.58.

Take QVANSAFVERVRKRGFEEVYMTEP: the protein stability index turned out to be 2.99.

With QVANSAFVERVRKRGFEQVYMTEP, the protein stability index is 2.59.

Turning to QVANSAFVERVRKRGFEPVYMTEP, the protein stability index came to 2.47.

In the case of QVANSAFVERVRKRGFECVYMTEP, the protein stability index was determined as 2.38.

With QVANSAFVERVRKRGFEAVYMTEP, the protein stability index worked out at 2.96.

Regarding QVANSAFVERVRKRGFEFVYMTEP, the protein stability index was determined as 1.85.

In the case of QVANSAFVERVRKRGFEDVYMTEP, the protein stability index came out at 2.88.

For QVANSAFVERVRKRGFEVLYMTEP, the protein stability index stood at 2.09.

On to QVANSAFVERVRKRGFEVWYMTEP, for which the protein stability index came out at 1.42.

Take QVANSAFVERVRKRGFEVKYMTEP: the protein stability index was found to be 2.69.

Consider QVANSAFVERVRKRGFEVNYMTEP, for which the protein stability index worked out at 3.15.

QVANSAFVERVRKRGFEVPYMTEP: the protein stability index came to 2.79.

Regarding QVANSAFVERVRKRGFEVAYMTEP, the protein stability index turned out to be 2.83.

With QVANSAFVERVRKRGFEVYYMTEP, the protein stability index was determined as 1.98.

For QVANSAFVERVRKRGFEVQYMTEP, the protein stability index stood at 2.33.

Consider QVANSAFVERVRKRGFEVMYMTEP, for which the protein stability index came to 1.84.

For the variant QVANSAFVERVRKRGFEVCYMTEP, the protein stability index was found to be 2.79.

For QVANSAFVERVRKRGFEVFYMTEP, the protein stability index turned out to be 1.53.

As for QVANSAFVERVRKRGFEVTYMTEP, the protein stability index stood at 2.93.

As for QVANSAFVERVRKRGFEVEYMTEP, the protein stability index was 3.43.

As to QVANSAFVERVRKRGFEVIYMTEP, the protein stability index was 2.15.

As to QVANSAFVERVRKRGFEVGYMTEP, the protein stability index is 2.75.

Regarding QVANSAFVERVRKRGFEVSYMTEP, the protein stability index was determined as 2.68.

For the variant QVANSAFVERVRKRGFEVRYMTEP, the protein stability index stood at 2.57.
